Target: Thermus thermophilus SoxB (Thermus thermophilus) (UniProt Q72IT0)
Assay: ITC; SoxB (50 μM) in the cell, SoxYZ as the titrant; 25°C; 30 mM Tris/HCl pH 8.0, 200 mM NaCl; two replicate experiments fitted together to a hetero-association model (A + B ↔ AB)

Sequence of UniProt Q72IT0 (Q72IT0 entry or part of it): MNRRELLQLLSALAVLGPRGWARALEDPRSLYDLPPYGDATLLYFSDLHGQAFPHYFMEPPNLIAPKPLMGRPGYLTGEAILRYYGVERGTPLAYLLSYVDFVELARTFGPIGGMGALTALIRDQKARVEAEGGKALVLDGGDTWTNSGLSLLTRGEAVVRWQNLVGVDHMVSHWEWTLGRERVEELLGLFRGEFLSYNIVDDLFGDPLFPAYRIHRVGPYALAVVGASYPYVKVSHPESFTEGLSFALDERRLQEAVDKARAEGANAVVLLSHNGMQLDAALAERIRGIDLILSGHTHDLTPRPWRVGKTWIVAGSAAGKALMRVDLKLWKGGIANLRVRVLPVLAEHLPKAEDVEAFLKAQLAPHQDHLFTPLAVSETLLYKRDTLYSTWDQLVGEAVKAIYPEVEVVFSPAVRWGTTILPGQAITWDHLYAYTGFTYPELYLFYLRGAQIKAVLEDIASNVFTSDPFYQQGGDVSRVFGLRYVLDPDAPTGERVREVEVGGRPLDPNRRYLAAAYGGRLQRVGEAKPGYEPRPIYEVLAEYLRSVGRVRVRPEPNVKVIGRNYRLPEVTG

Substance: Thermus thermophilus SoxYZ-S-sulfonate (from UniProt Q72IS6 1-152; Q72IS7 1-108) (complex)
- Kd: 30 µM
- dH: -8.37 kJ/mol

Substance: Thermus thermophilus SoxY_(C151E)Z variant (from UniProt Q72IS6 1-152; Q72IS7 1-108) (complex)
- Kd: 10 µM
- dH: -20.9 kJ/mol

Source: article PMC5336275
